Laboratory results: article PMC12106642 (Nature Communications, 2025)
Where “and” joins values, the source holds several entries; their conditions need not be identical. Identical values can stand only once.

Biological target: the molecule itself
Test: high-speed atomic force microscopy

B1: Human Recombinant ADAR Protein NM_001025107 (ADAR1-p110) (enzyme, UniProt P55265-5 1-931, looked up)
chain: MAEIKEKICDYLFNVSDSSALNLAKNIGLTKARDINAVLIDMERQGDVYRQGTTPPIWHLTDKKRERMQIKRNTNSVPETAPAAIPETKRNAEFLTCNIPTSNASNNMVTTEKVENGQEPVIKLENRQEARPEPARLKPPVHYNGPSKAGYVDFENGQWATDDIPDDLNSIRAAPGEFRAIMEMPSFYSHGLPRCSPYKKLTECQLKNPISGLLEYAQFASQTCEFNMIEQSGPPHEPRFKFQVVINGREFPPAEAGSKKVAKQDAAMKAMTILLEEAKAKDSGKSEESSHYSTEKESEKTAESQTPTPSATSFFSGKSPVTTLLECMHKLGNSCEFRLLSKEGPAHEPKFQYCVAVGAQTFPSVSAPSKKVAKQMAAEEAMKALHGEATNSMASDNQPEGMISESLDNLESMMPNKVRKIGELVRYLNTNPVGGLLEYARSHGFAAEFKLVDQSGPPHEPKFVYQAKVGGRWFPAVCAHSKKQGKQEAADAALRVLIGENEKAERMGFTEVTPVTGASLRRTMLLLSRSPEAQPKTLPLTGSTFHDQIAMLSHRCFNTLTNSFQPSLLGRKILAAIIMKKDSEDMGVVVSLGTGNRCVKGDSLSLKGETVNDCHAEIISRRGFIRFLYSELMKYNSQTAKDSIFEPAKGGEKLQIKKTVSFHLYISTAPCGDGALFDKSCSDRAMESTESRHYPVFENPKQGKLRTKVENGEGTIPVESSDIVPTWDGIRLGERLRTMSCSDKILRWNVLGLQGALLTHFLQPIYLKSVTLGYLFSQGHLTRAICCRVTRDGSAFEDGLRHPFIVNHPKVGRVSIYDSKRQSGKTKETSVNWCLADGYDLEILDGTRGTVDGPRNELSRVSKKNIFLLFKKLCSFRYRRDLLRLSYGEAKKAARDYETAKNYFKKGLKDMGYGNWISKPQEEKNFYLCPV
In the case of B1, the “stoichiometry N” value is reported as 2 and 3 and 4.
